Reference: patent US20180306788

Experiments:
[1] = target: acetyl-CoA carboxylase 2 (ACC2), wild type
[2] = target: T1, control ACC2 proline-containing peptide (P966)
T1 chain: ARLELDDPSKVHPAE

[3] = target: T2, synthetic ACC2 peptide containing P450
T2 chain: ERIGFPLMIKASEGGGGK

[4] = target: T3, synthetic ACC2 peptide containing P2131
T3 chain: AGQVWFPDSAYKTAQ

B1: HA-PHD3 (hemagglutinin-tagged prolyl hydroxylase 3, transiently overexpressed in 293T cells) (protein)
chain: MPLGHIMRLDLEKIALEYIVPCLHEVGFCYLDNFLGEVVGDCVLERVKQLHCTGALRDGQLAGPRAGVSKRHLRGDQITWIGGNEEGCEAISFLLSLIDRLVLYCGSRLGKYYVKERSKAMVACYPGNGTGYVRHVDNPNGDGRCITCIYYLNKNWDAKLHGGILRIFPEGKSFIADVEPIFDRLLFFWSDRRNPHEVQPSYATRYAMTVWYFDAEERAEAKKKFRNLTRKTESALTED
ACC2 P450A point mutant
  in vitro ACC activity assay ([14C]malonyl-CoA from [14C]bicarbonate, 293T lysates): had no effect on the P450A variant
[1]
  in vitro ACC activity assay ([14C]malonyl-CoA from [14C]bicarbonate, 293T lysates): PHD3 overexpression amplified wild-type ACC2 activity

B2: recombinant PHD3 (in vitro hydroxylation assay) (protein)
chain: B1 chain
[2]
  reconstituted in vitro radioactivity-based hydroxylation assay ([14C]CO2 release): but not a peptide containing P2131 or a control ACC2 proline-containing peptide (P966)
[3]
  reconstituted in vitro radioactivity-based hydroxylation assay ([14C]CO2 release): recombinant PHD3 was shown to hydroxylate a synthetic ACC2 peptide containing P450
[4]
  reconstituted in vitro radioactivity-based hydroxylation assay ([14C]CO2 release): but not a peptide containing P2131
